Consider five molecules from paper PMC10825579.

B1: VHH clone Ig-S506 (cluster Ig-7) (VHH)
VHH: QVQLVESGGGLVQAGGSLRLSCAASGFTFDDYVIGWFRQAPGKEREGVSCISSSDGSTNYADSVKGRFTISSDNAKNTVYLQMNSLKPEDTAVYYCAEGPTVLDGCIYDSGSYYFSWGQGTQVTVSS
B2: VHH clone Ig-S8492 (cluster Ig-7) (VHH)
VHH: QVQLVESGGGLVQAGGSLRLSCAASGFTFDDYVIGWFRQAPGKEREGVSCISSSDGRTDYADSVKGRFTISSDNAKNTVYLQMNSLKPEDTAVYYCAAGPTVLDGCIYYSGSYYFSWGQGTQVTVSS
B3: VHH clone Ig-S675 (cluster Ig-7) (VHH)
VHH: QVQLVESGGGLVQAGGSLRLSCAATGFTFDDYVIGWFRQASGKEREGVSCIRSSDGDTYYADSVKGRFTVSSDNAKNTVYLQMNSLKPEDTAVYYCAEGPTVLDGCIVDSESYYFSWGQGTQVTVSS
B4: VHH clone Ig-S6584 (cluster Ig-7) (VHH)
VHH: QVQLVESGGGLVQAGGSLRLSCAASGFTFDDYIVGWFRQAPGKEREGVSCIRSSDGSTNYADSVKGRFTVSSDNAKNTVYLQMNSLKPEDTAVYYCAEGPTVLDGCIYDSESYYFSWGQGTQVTVSS
B5: VHH clone Ig-S1139 (cluster Ig-7) (VHH)
VHH: QVQLVESGGGLVQAGGSLRLSCAASGFTFDDYVIGWFRQAPGKEREGVSCISSSDGSTYYADSVKGRFTISSDNAKNTVYLQMNSLKPEDTAVYYCAEGPTVLDGCIVDSGSYYFSWGQGTQVTVSS

In the test the target is Fab of trastuzumab (human). The test is described as follows: SPR; Fab of trastuzumab amine-coupled to a CM5 chip (1,000 RU), VHH as analyte in a 1/2 dilution series; Biacore X100, HBS-EP (10 mM HEPES pH 7.4, 150 mM NaCl, 3 mM EDTA, 0.005% P20), 20°C, 10 µL/min, association 360 s, dissociation 800 s; 1:1 binding model. Background: SPR reads the build-up and loss of mass on a sensor chip optically.
In general, Kd refers to the constant that tells how readily two partners part at equilibrium. Low readings indicate a tighter complex, high ones a looser complex. Usually koff stands for the first-order rate constant of dissociation. The low end stands for slow dissociation, the high end for fast dissociation. The term kon denotes a measure of how fast the partners come together. In the case of B1, the Kd is 246 nM, the koff stood at 0.0073 s⁻¹ and the on-rate constant (kon) was 29700 M⁻¹ s⁻¹.
B2 registered a Kd of 123 nM, a koff of 0.000245 s⁻¹ and an on-rate (kon) of 1990 M⁻¹ s⁻¹.
B3 returned a Kd of 0.155 nM, a koff of 4.71e-05 s⁻¹ and an association rate constant (kon) of 303000 M⁻¹ s⁻¹.
The like results for B4 were, in that order, 5.99 nM, 0.000221 s⁻¹ and 36900 M⁻¹ s⁻¹.
The like results for B5 were, in that order, 233 nM, 0.00554 s⁻¹ and 23700 M⁻¹ s⁻¹.
